B1: Regulation of nuclear pre-mRNA domain-containing protein 1B (Homo sapiens), Q9NQG5 (parent)
chain: MSSFSESALEKKLSELSNSQQSVQTLSLWLIHHRKHAGPIVSVWHRELRKAKSNRKLTFLYLANDVIQNSKRKGPEFTREFESVLVDAFSHVAREADEGCKKPLERLLNIWQERSVYGGEFIQQLKLSMEDSKSPPPKATEEKKSLKRTFQQIQEEEDDDYPGSYSPQDPSAGPLLTEELIKALQDLENAASGDATVRQKIASLPQEVQDVSLLEKITDKEAAERLSKTVDEACLLLAEYNGRLAAELEDRRQLARMLVEYTQNQKDVLSEKEKKLEEYKQKLARVTQVRKELKSHIQSLPDLSLLPNVTGGLAPLPSAGDLFSTD

Variants of: B1
Conditions: with rpb1_human POLR2A

| Variant | effect of a mutation on the interaction |
| --- | --- |
| R114A | disrupting interaction strength |

Reference: IntAct's records for PubMed 24997600
